# Measured values taken from the DeepSol protein solubility set.
# Assay: soluble on expression in E. coli; label from the status in PepcDB or PDB records
row,Sequence,soluble on expression in E. coli
1,MSGSVPFIRRLAVIGVGLIGGSLARALRTAGAVGEIIGIDRDEANLRQAAELGVVDRAAATVAEGVAGADMVFLSVPVRAMAGVVREIAPHLAAGCIVTDGGSVKAEVVAACDPLMPAGTCFVGGHPIAGTEHSGVGASFATLYQGKRCILTPAATTDRDALATVARMWEAAGSEVVLMDPEKHDRVVAAISHLPHMVAYALVNAVEGYDRFEESILRYSAGGFRDFTRIASSDPAMWRDIALMNREGVLEMMDHFAAYFGQLRSLVAAGDAEGLERFFRDSKESRDAILLEHHHHHH,soluble
2,MSGTKASVFSTILQLMNSLAIRAVADNVRRLLEARRLSQKELAALSGVSQKSINDLLNYGGTVSKEPRLGTIEKLAKGFGIATWQLQIPGLPVDLLQGQMVSKVIENFRDAGTVGRENISRVAESEVRYSLVQNSERGAPR,not soluble
3,MSGYACNQPQLYSQCNCPSFCSGYMQQQPQYYQSPCGYSSGCSGGSGGGYYPRRRHHKHKKPRRKFRFDSDEDEDLPPPPPRKSAKISRVHSEEQGFIEEKPRVTETTKTDSSWENEDLWEKKFVTESTHTKAEEKLDSEEFPEITSEEIEAAMRRKTTLPPRVVQPQPVAPAGGGLGGLGLGNGGLFGISSGVGVGVPGVGPIGVSSGLGIGK,not soluble
4,MSHGSGLVRTTCSSGGALGPAQPSEGLLDRVYPLTHGALFKVAQMGYRLLVAGFQNCRGIDIY,not soluble
5,MSHHNPLVSVVIPSKNRPDLVIATLVSVIDQTYDNIEIIVVDDGSDMPLAPLLKDRFSDRVLCLRNDQSLGGAVARNRGAQSAHGDYITFLDDDDLWLPKKLEMQVDAFSKHGVDIGVVYCGFDFLCKEEIVPRQNKFHNDYDLSIAVLSGCPFGSPTPLIRKHYFDMVGGFDRELPSCQDWDLWIRLSKVCGFYPVKESLALYRVHGDQISTNLRKKIDGRKMVLAKHYDEIKNYPRVLSAHYSRIGSLCVLADEHVEARDFFSKALASNMFDGGSFVHLVLQFLCRPLEKWLIERFSVNTIDGIKVIHLEHHHHHH,not soluble
6,MSHIFDASVLAPHIPSNLPDNFKVRPLAKDDFSKGYVDLLSQLTSVGNLDQEAFEKRFEAMRTSVPNYHIVVIEDSNSQKVVASASLVVEMKFIHGAGSRGRVEDVVVDTEMRRQKLGAVLLKTLVSLGKSLGVYKISLECVPELLPFYSQFGFQDDCNFMTQRF,soluble
7,MSHKLTILPFLIKFTPKFPQSIDHDEHGLNVYAFDLDHTIIKPKSPNISFSRSASDWQFINFNSKKSTLDYLCNIIDNDPTAVIVIFSNQGGVITVPRTSKSCTKYTNKILLFLKAIKNDERGETLSHRLWLYAAPKRPKTFAANHSKITFASLGESYNNDPNIFEKVRKPMTGMVEFFKRDLESAYRVSEQISPIKLNWIYYCGDAAGRKKDFSDSDIKFAENLHVEFKYPEEIFHG,soluble
8,MSHLNYNHLYYFWMVCKQGSVTKAAEALFLTPQTVTGQIKALEDRLDGKLTKRNGRNIEPTELGQLIYKYADRMFGLSYEMLDIVNYSQQANVLFDVGVADALSKRLVSKVLSTTVPEDASIHLRCFESTHELLLEQLSQHKLDMILSDCPVDSSQNSGLFSKKLGECEMSFFCSKELKGVTFPEVLEKHKVLIPGSRTSMGRKVVQWCDQQGVTPNILGEFDDVALMKAFARENNAVFLAPSVYMNEADSDLSLHKIADVRDLKEEYYVIFAERMIQHPAVKSICEADFSHLFDF,not soluble
9,MSHRNDSSRKHRKSRSIKNDQHYPTVSFDGAESVDIPADEGKSPVSTHLSLASNPTEFKFMDEIALLKRGRIDKDAPKHPYNRRGQQPMMKKEISVTSAHSNSSLPVRSPAIMTLMGGVPEAEKEYNVGKGGLLKISKMKEGGKRYEVSANERFTVFQQTAGQTCLFTFKA,not soluble
10,MSHRPIAIFDFDGTLTRCDSLLPFLRQAQPVILFWLRLPFYLAMWMCYKLRLAPADRTKAAILSTVLKGKREVECRAMGQRFVPAIESILRPEALRCLEWHRSEGHRLVLLTASLLPCVEPWAEKTGFHTVIATLPEIKSGILTGRFEGNNCKGKEKIHRLDRALPHWRDSISYGYGDSPSDRPLLSLCTHSYYRRFPAL,not soluble
11,MSHSLRYFVTAVSRPGFGEPRYMEVGYVDNTEFVRFDSDAENPRYEPRARWIEQEGPEYWERETRRAKGNEQSFRVDLRTALRYYNQSAGGSHTLQWMAGCDVESDGRLLRGYWQFAYDGCDYIALNEDLKTWTAADMAAQITRRKWEQAGAAERDRAYLEGECVEWLRRYLKNGNATLLRTDPPKAHVTHHRRPEGDVTLRCWALGFYPADITLTWQLNGEELTQEMELVETRPAGDGTFQKWASVVVPLGKEQKYTCHVEHEGLPEPLTLRWGKE,soluble
12,MSHYGGNPRGNSSHQFGRKDFQQSDSKHIPKITGQPLPNEVQIPFDNMIYETRNPPKFEKQAKFISEYCINYDRKLQLGRMRAKKFHDKLPPNNLSLDLGKGFETFDPKEGDEKIIMLLEWINQMAPEGGRLKKVIHEADVVCWRGLITKICSTIYNKEEGWRIDAIKRKGVIFLCEEKTEQAKNRDLNQTDLDKRMSYWGHKFEQYVTLDDDAEQPDTSSPVTTKEEYAVVFRNDLQTDQRLNPEKRSIGIFYSGEVDCLDRHGNMLELKTQKGELGHGFYKYSKSFKWWLQSSLVNVDHIIVGLRTQEGHVKSLTSLRTREIPQRASWNFRAGFEFLSTIFTYILNCLEKDGDACVIEYRSEMGIHKGIQMRRVPVDEFDFVPNEFLEKFC,not soluble
13,MSHYQCAVCSSIDANPNSLAVNYQCLADSSVVGEFHVLPRHQGYTDLLHGGIASSLLDGAMTHCLLFRDIQALTAQLDVRYHAPIELDEHVTITAHCEGERRGIYQLVAQLLVNNEVRVTAKGKFIRPKLEHHHHHH,soluble
14,MSICDPALRNALRTLKLSGMLDTLDARLAQTRNGDLGHLEFLQALREDEIARRESAALTRRLRRAKFEAQATFEDFDFTANPKLPGAMLRDLAALRWLDAGESVILHGPVGVGKTHVAQALVHAVARRGGDVRFAKTSRMLSDLAGGHADRSWGQRIREYTKPLVLILDDFAMREHTAMHADDLYELISDRAITGKPLILTSNRAPNNWYGLFPNPVVAESLLDRLINTSHQILMDGPSYRPRKRPGRTTS,not soluble
15,MSIKIGLLGFGTVASGIPFLLKENGEKVFAASRDQLEIAKVLVKDDEEKDRLIAAGNDYNFVTNVDEILNDEEIQIVVELMGRIEPARTFITKALEAGKNVVSANKDLIATHGKELIALAQDKGVAFYYEAAVAGGIPILRTLANSLTSDKVTRILGVLNGTSNFMMTKMVDEGWSYEDALKTAQELGYAESDPTNDVEGYDAAYKAVILSQFGFGATIDFDDVSHKGITNISTDDVAVAQELGYVIKLVGDVREVESGISAEVSPTFLPKNHPLASVNDVMNAVFVESIGIGESMYYGPGAGQKPTATSVLADIIRIARRLSDGNVGKPFNEFRRDLPLANPADVKSNYYFALDTPDEKGKILHLSEIFNSEDISFEQVLQQKANGTTARIVVITHAMSKTQLKAVTEKLEAAEDFTVVNTLKVLSNLEHHHHHH,soluble
16,MSIKPIDFQMMIPKTAEISKIQNDQQQKSVVVNEQQTNITRQKFEENVNTVHARENAEKVRIDSEQKKKKEERGRKKNPNRAKYGTKGEKEPEEQTSVIDIRL,not soluble
17,MSISISYSTTYSGWTVADYLADWSAYFGDVNHRPGQVVDGSNTGGFNPGPFDGSQYALKSTASDAAFIAGGDLHYTLFSNPSHTLWGKLDSIALGDTLTGGASSGGYALDSQEVSFSNLGLDSPIAQGRDGTVHKVVYGLMSGDSSALQGQIDALLKAVDPSLSINSTFDQLAAAGVAHATPAA,soluble
18,MSISSDWIVPDWPAPPSVRALSTTRQGGVSTGPYGLAGGLPGGLNLGRHVGDGPDAVTQNRRLLRAVLPAEPAWMEQVHGTVVADLDQPLPAPVVADAAIAASPGRVCVVMTADCLPVLLCDARGVTVGAAHAGWRGLCSGVIEQTVERMTDALRACGQEADPTWLAWLGPAIGPDCFEVGAEVRQAFIDAARPDELPATRAAFAEGAADGKFLADLYALARLRLARAGCRDVHGGGLCTMTDAERFYSYRRDRTTGRMATLIWRAA,soluble
19,MSIVPGVVHSLYGDAKARWTINEYADLECPFCKVYTPRLKRWVDSHTDVNLVWRHLPLQMHGEAARHQARLVECAGIQGGAKAFWSAIDAIFAQSAGNGGGLPGGTLDFPDLDQARLEKCAKDMDLVDQLIKTDIDTARSNGITATPTLVIQDNQTGRSVKLEGMADETTLLSAIDWLAKDL,not soluble
20,MSKDYRSLANLSPFELKDELIKVASGKANRLMLNAGRGNPNFLATTPRRAFFRLGLFAAAESELSYSYMTVGVGGLAKLDGIEGRFERFIAEHRDQEGVKFLGKSLSYVRDQLGLDPAAFLHEMVDGILGCNYPVPPRMLTVSEQIVRQYIVREMAGGAVPPESVDLFAVEGGTAAMAYIFESLRISGLLKAGDKVAIGMPVFTPYIEIPELAQYDLKEVPIHADPDNGWQYSDAELDKLKDPDVKIFFCVNPSNPPSVKMDQRSLDRVRAIVAEQRPDLLILTDDVYGTFADEFQSLFSVCPRNTLLVYSFSKYFGATGWRLGVIAAHKDNVFDHALSQLPESAKKALDHRYRSLLPDVRSLKFIDRLVADSRVVALNHTAGLSTPQQVQMVLFSLFALMDEADAYKQALKQLIRRREATLYRELGMPPLENPNSVNYYTLIDLQNVTCRLYGEAFSQWAVQQSSTGDMLFRVADETGIVLLPGRGFGSDRPSGRASLANLNEYEYAAIGRALRRLADELYEQYKALGKEKLAAALEHHHHHH,soluble
21,MSKFSLKLGSKTLKKNISKKTKKKNSLQKANLFDWDDAETASLSHKPQSKIKIQSIDKFDLDEESSSKKKLVIKLSENADTKKNDAPLVEYVTEKEYNEVPVEEFGDALLRGMGWESDSEQDSKGDKTQSRNKDVSNVSQIHPDGLGIGAKLNKAINVEEASFMPVVKIDKITGTKVDDDKKNKS,soluble
22,MSKGKVCLAYSGGLDTSVILAWLLDQGYEVVAFMANVGQEEDFDAAKEKALKIGACKFVCVDCREDFVKDILFPAVQVNAVYEDVYLLGTSLARPVIAKAQIDVAKQEGCFAVSHGCTGKGNDQIRFELSFYALKPDVKCITPWRMPEFFERFAGRKDLLDYAAQKGIPVAQTKAKPWSTDENQAHISYEAGILEDPDTTPPKDMWKLIVDPMDAPDQPQDLTIDFERGLPVKLTYTDNKTSKEVSVTKPLDVFLAASNLARANGVGRIDIVEDRYINLKSRGCYEQAPLTVLRKAHVDLEGLTLDKEVRQLRDSFVTPNYSRLIYNGFLLHPECEYIRSMIQPSQNSVNGTVRVRLYKGNVIILGRSTKTEKLYDPTESSMDELTGFLPTDTTGFIAIQAIRIKKYGESKKTKGEELTL,soluble
23,MSKIAIIGATGRAGSQLLEEALRRGHSVTAIARNTAKIGSRAGVVSRDVDVADSAALQAAVAGHDVVISAAHFSSIAANAIIDPVKKAGVKRLLVVGGAGSLLLPGGSKVIDSPGFPEEYKAEASAGGVYLETLRKEQDLDWTFLSPSAEFVEGERTGHFRLGQDDLLVSAEGRSWITFADYAIAMLDEVEKPAHSRQRFTVGYLEHHHHHH,not soluble
24,MSKIEIYNREEALLLIEKLNNSNIEIPILLMLTLGLRLGEATGLRWTDVDLNIGSVSVSQTLIYANNKIEFKEPKTSKSRRTLSAPDELIEKLKIEKLRQNKLKLQGILKNENNLVCLNKDYNPFLPATLRKSFHRFIKKNNLKNIRMHDLRHTNASLLLLGGTNMKVVSERLGHTDIQITMNRYSHVLEEMDKKASDNLSKILEHHHHHH,not soluble
